Here are results for one molecule from patent publication US20260224676A1 (published 2026).

For orientation: Kd means the free concentration of one partner at which half of the binding sites on the other are occupied at equilibrium, for simple one-to-one binding.

This assay addresses Tau preformed fibrils (PFF) (UniProt P10636 2-758). The assay is described as follows: BLI. Background: BLI is a label-free optical method that tracks binding on a fibre tip over time.

B1: Bepranemab (antibody, V domains shown)
VH: EVQLQESGPGLVKPSETLSLTCTVSGFSLTSNDIAWIRQPPGKGLEWMGTIWTDGSTNYNTAVQSRVTISVDTSKNQFSLKLSSVTAADTAVYYCARHRLYYGAFDYWGQGTMVTVSS
VL: DIVMTQTPLSLSVTPGQPASISCRSSQSLEYSDGYTYLEWYLQKPGQSPQLLIYEVSNRFSGVPDRFSGSGSGTDFTLKISRVEAEDVGVYYCFQATHNPYTFGQGTKLEIK
The molecule B1 displayed a Kd of 1.32 nM.
